# Assay results as given in PMC8041770 (2021).
# B1: yeast-displayed eLIFR CBM I–Ig-like–CBM II domains (designed binder)
# chain: QKKGAPHDLKCVTNNLQVWNCSWKAPSGTGRGTDYEVCIENRSRSCYQLEKTSIKIPALSHGDYEITINSLHDFGSSTSKFTLNEQNVSLIPDTPEILNLSADFSTSTLYLKWNDRGSVFPHRSNVIWEIKVLRKESMELVKLVTHNTTLNGKDTLHHWSWASDMPLECAIHFVEIRCYIDNLHFSGLEEWSDWSPVKNISWIPDSQTKVFPQDKVVPVGSDITFCCVSQEKVLSALIGRTNCPLIHLDGENVAIKVRNVSASASSGTNVVFITEDDIFGTVIFAGYPPDTPQQLNCETHDLKEIICSWNPGRVTALVGPRATSYTLVESFSGKYVRLKRAEAPTNESYQLLFQMLPNQEIYNFTLNAHNPLGRSQSTILVNITEKVYPHTPTSFKVKDINSTAVKLSWHLPGNFAKINFLCEIEIKKSNSVQEQRNVTIKGVENSSYLVALDKLNPYTLYTFRIRCSTETFWKWSKWSNKKQHLTTEAS
# Molecular target: recombinant human LIF, histidine-tagged (hLIF-His) (human, UniProt P15018 23-202)
# Sequence (P15018 23-202): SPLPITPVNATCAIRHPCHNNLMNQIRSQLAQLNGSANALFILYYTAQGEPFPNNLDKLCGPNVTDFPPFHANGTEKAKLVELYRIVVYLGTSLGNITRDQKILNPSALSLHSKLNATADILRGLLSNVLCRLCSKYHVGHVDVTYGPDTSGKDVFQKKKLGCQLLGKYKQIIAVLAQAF
# Assay: FACS
binder,measurement,value
B1,Kd,0.014 nM
